Consider seven molecules from publication PMC3605307 (PLoS Pathogens, 2013).

Holding throughout (assay): SPR
Test [1] addresses T1, Human TRAIL-R2 ectodomain (residues 58–184), released from the Fc fusion (human, UniProt O14763 58-184, selenomethionine (only in the labelled complex of the derivative crystals)).
T1 construct: also called DR5; TRAIL-R2 receptor; not shown: Fc (human IgG1), C-terminal, cleaved
Conditions: both partners purified.

For test [2], the target named is T2, TRAIL (TNF-related apoptosis inducing ligand) ectodomain (UniProt P50591 39-281).
T2 construct: also called TNFSF10; Apo2L
Conditions: one partner purified.

Test [3] has as its target T3, TRAIL (TNF-related apoptosis inducing ligand) ectodomain (UniProt P50591 39-281).
T3 construct: also called TNFSF10; Apo2L
Conditions: one partner purified. This is another data set of the same source.

B1: UL141-Fc fusion protein (Fc fusion)
chain: DIAEKMWAENYETTSPAPVLVAEGEQVTIPCTVMTHSWPMVSIRARFCRSHDGSDELILDAVKGHRLMNGLQYRLPYATWNFSQLHLGQIFSLTFNVSTDTAGMYECVLRNYSHGLIMQRFVILTQLETLSRPDEPCCTPALGRYSLGDQIWSPTPWRLRNHDCGMYRGFQRNYFYIGRADAEDCWKPACPDEEPDRCWTVIQRYRLPGDCYRSQPHPPKFLPVTPAPPADIDTGMS
A word on the Kd: it is a measure of binding affinity in units of concentration. The koff is a measure of how fast the partners let go of each other. By kon is commonly meant a measure of how fast the partners come together. Take B1: in test [1], the Kd was 21.4 nM, the koff came out at 0.00564 s⁻¹ and the kon stood at 264000 M⁻¹ s⁻¹.

B2: human TRAIL-R2-Fc D148A (Fc fusion)
chain: QQDLAPQQRAAPQQKRSSPSEGLCPPGHHISEDGRDCISCKYGQDYSTHWNDLLFCLRCTRCDSGEVELSPCTTTRNTVCQCEEGTFREEASPEMCRKCRTGCPRGMVKVGDCTPWSDIECVHKESG
notes: source: Sf9 insect cells, culture supernatant; not shown: Fc (human IgG1), C-terminal, kept
Regarding B2, in test [2], binding was characterised by a dissociation constant (Kd) of 4.48 nM, the koff came to 3.58e-05 s⁻¹ and the kon came out at 8000 M⁻¹ s⁻¹.

B3: Human TRAIL-R2-Fc K155A (Fc fusion)
chain: QQDLAPQQRAAPQQKRSSPSEGLCPPGHHISEDGRDCISCKYGQDYSTHWNDLLFCLRCTRCDSGEVELSPCTTTRNTVCQCEEGTFREEDSPEMCRACRTGCPRGMVKVGDCTPWSDIECVHKESG
notes: source: Sf9, culture supernatant used for SPR; not shown: Fc (human IgG1), C-terminal, kept
B3 came in with a Kd in test [3] of 40 nM.

B4: human TRAIL-R2-Fc P150A (Fc fusion)
chain: QQDLAPQQRAAPQQKRSSPSEGLCPPGHHISEDGRDCISCKYGQDYSTHWNDLLFCLRCTRCDSGEVELSPCTTTRNTVCQCEEGTFREEDSAEMCRKCRTGCPRGMVKVGDCTPWSDIECVHKESG
notes: as for B2
In test [2], B4 had a Kd of 4.29 nM, a koff of 9.02e-06 s⁻¹ and a kon of 2100 M⁻¹ s⁻¹.

B5: human TRAIL-R2-Fc M152A (Fc fusion)
chain: QQDLAPQQRAAPQQKRSSPSEGLCPPGHHISEDGRDCISCKYGQDYSTHWNDLLFCLRCTRCDSGEVELSPCTTTRNTVCQCEEGTFREEDSPEACRKCRTGCPRGMVKVGDCTPWSDIECVHKESG
notes: as for B2
In the case of B5, in test [2], the dissociation constant Kd was determined as 202 nM, the dissociation rate constant (koff) worked out at 0.000678 s⁻¹ and the kon was 3350 M⁻¹ s⁻¹.

B6: Human TRAIL-R2-Fc M152A (Fc fusion)
chain: QQDLAPQQRAAPQQKRSSPSEGLCPPGHHISEDGRDCISCKYGQDYSTHWNDLLFCLRCTRCDSGEVELSPCTTTRNTVCQCEEGTFREEDSPEACRKCRTGCPRGMVKVGDCTPWSDIECVHKESG
notes: also called TRAIL-R2 M152A mutant; source: Sf9, culture supernatant used for SPR; not shown: Fc (human IgG1), C-terminal, kept
Take B6: in test [3], the Kd is 202 nM.

B7: human TRAIL-R2-Fc K155A (Fc fusion)
chain: QQDLAPQQRAAPQQKRSSPSEGLCPPGHHISEDGRDCISCKYGQDYSTHWNDLLFCLRCTRCDSGEVELSPCTTTRNTVCQCEEGTFREEDSPEMCRACRTGCPRGMVKVGDCTPWSDIECVHKESG
notes: as for B2
Turning to B7, in test [2], binding was put at a Kd of 39.7 nM, the koff stood at 0.000138 s⁻¹ and the kon was determined as 3480 M⁻¹ s⁻¹.
